In patent US20240218057A1 (ROCKEFELLER UNIVERSITY, published 2024):
Substitutions are numbered along the chain they refer to.

B1: C1044 (antibody, V domains shown)
VH: QVQLQESGPGLVKPSQTLSLTCTVSGGSISSGNYYLTWIRQPAGKGLEWIGHIYTSGSTNYNPSLKSRVTISVDTSMNQFSLKLSSVTAADTAVYYCARDIPPTWYFDLWGRGTLVTVSS
VL: SYELTQPPSVSVAPGKTARITCGGNNIGSKNVHWYQQKPGQAPVLVVYDDSDRPSGIPERFSGSNSGNTATLTISRVEAGDEAGYYCQVWDSTSDHLFWVFGGGTKLTVL
notes: IgG; V domains only
B2: C1045 (antibody, V domains shown)
VH: B1 VH with G27D, L36W, T37S, T59P, N62K, V73L, M77K, S85T, V94M, P103S
VL: B1 VL with T21P, N25T, N26D, V46A, N68S, G84D, T93S, S94G, H96R, F98S
notes: IgG; V domains only
B3: C1026 (antibody, V domains shown)
VH: QVQLVESGGGVVQPGKSLRLSCAASGFIFSSYSMHWVRQAPGKGLEWVAVVSNDGSGKFYADSVRGRFTIFRDNSKNTLYLQVSSLRAEDTAVYYCARDALTSISVLFDCWGQGTLVTVSS
VL: DIQMTQSPSSLSASLGDRVTITCRASQSISNYLNWYQQKPGKAPKLLIYGASSLQSGVPSRFSGSGSGTDFTLTISNLQPEDFATYFCQQSYSTPSVTFGGGTKVEIK
notes: IgG; V domains only
B4: C1041 (antibody, V domains shown)
VH: QVQLVQSGAEVKKPGASVKVSCKASGYTFSDHYIYWVRQAPGQGLEWMGIINPSAGSTSYAQKFQGRVTMTRDTSTSTVYMELSSLRSEDTAVYYCARDIVFVPATMAMDVWGLGTTVTVSS
VL: EIVLTQSPATLSLSPGERATLSCRASQSVSRYLAWYQQKPGQAPRLLIYDASNRATGIPARFSGSGSGTDFTLTISSLEPEDFAVYYCQQRSNWLFTFGPGTKVDIK
notes: IgG; V domains only
B5: C1042 (antibody, V domains shown)
VH: B4 VH with A55G, R87K, A97S, L114Q
VL: B4 VL
notes: IgG; V domains only
B6: C1027 (antibody, V domains shown)
VH: EVQLVESGGGLVQPGGSLRLSCAASGFIVTTNYMSWVRQAPGKGLEWVSLIYPGGSTFYADSVEGRFTISRDNSKNTLYLQVNSLRVEDTAVYYCARDTFGRGDDHWGQGTLVTVSS
VL: DIQMTQSPSSLSASVGDRVTITCQASQDINIYLNWYQQRPGKAPKLLIYDASNLQTGVPSRFSGSGSGTDFTITISSLQPEDIATYYCQQYDNLPRSFGQGTKLEI
notes: IgG; V domains only
B7: C1033 (antibody, V domains shown)
VH: QVQLVQSGAEVKKPGSSVKVSCKASGGTFSRNVISWVRQAPGQGLEWMGGIIPMFGTANYAQKFQGRVTISADESTSTAYMELSSLRSEDTAVYYCAREDFILESAPIRENSYYYYGMDVWGQGTTVTVSS
VL: EIVLTQSPGTLSLSPGERATLSCRASQSVSSNYLAWYQQKPGQAPRLLIYDASSRATGIPDRFSGSGSGTDFTLTIRRLEPEDFAVYYCQQYGGSPRTFGQGTKVEIK
notes: IgG; V domains only
B8: C1035 (antibody, V domains shown)
VH: EVQLVESGGGLIQPGGSLRLSCAASGLTVSRNYMNWVRQAPGKGLEWVSVMYSGGSTFYADSVKGRFTISRDNSKNTLYLQMNSLRAEDTAVYYCARESYGMDVWGQGTTVTVSS
VL: B7 VL with V29F, N32T, D51G, R77S, G93V, G94T, R97W
notes: IgG; V domains only
B9: C1036 (antibody, V domains shown)
VH: B8 VH with T28I, A40V, S53A, N73D, A87P
VL: B7 VL with V29I, N32T, D51G, R77S, G93V, G94T, R97W
notes: IgG; V domains only
B10: C1029 (antibody, V domains shown)
VH: QVQLVESGGGVVQPGRSLRLSCAASGFTFSSFGMHWVRQAPGKGLEWVAVISYDGSYKDYGDSVKGRFTISRDNSKNTLYLQMNSLRAEDTAVYYCARDSNVDTVMVTWFDYWGRGTLVTVSS
VL: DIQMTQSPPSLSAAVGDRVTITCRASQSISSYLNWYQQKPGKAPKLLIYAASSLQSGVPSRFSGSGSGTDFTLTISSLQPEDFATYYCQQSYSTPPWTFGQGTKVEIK
notes: IgG; V domains only
B11: C1028 (antibody, V domains shown)
VH: QVQLVESGGGVVQPGRSLRLSCADSGFTFSSSGMHWVRQAPGKGLEWVGVISYDGGNKYYADSVKGRFTISRDNSKNTLYLQMNSLRAEDTAVYYCAKDTPGGDDIMTGWGLYGMDVWGQGTTVTVSS
VL: DIQMTQSPSSLSASVEDRVTITCRASQSISSYLNWYQQKPGKAPKLLIYAAISLQSGVPSRFSGSGSGTEFTLTISSLQPEDFATYYCQQSYTTPWAFGQGTKVEIK
notes: IgG; V domains only
B12: C950 (antibody, V domains shown)
VH: QVQLVESGGGLVKPGGSLRLSCAASGFTFSDYCVTWIRQAPGKGLEWLSYSNTNDSSRSYADSVKGRFTISRDNAKNSLYLQMDSLRAEDTAVYYCARRGDGNVPLFHYYYMDVWGKGTTVTVSS
VL: QSVLTQPPSASGTAGQRVTISCSGGSSNIGSNTVHWYQQLPGTAPKLLIYSNYKRPSGVPDRFSGSKSGASASLAISGLQSEDEAEYYCAAWDDSANGPIFGGGTKLTVL
notes: IgG; V domains only
B13: C983 (antibody, V domains shown)
VH: QVQLVESGGGVVRPGRSLRLSCAASGFTFSKYGMHWVRQAPGKGLECVASIAYDGSDDSYADSVKGRFIISRDNSKNTLYLQMNSLRAADTAVYYCAKVLGSYCSASSCHGQRPDYWGQGTLVTVSS
VL: DIQMTQSPSSLSAYVGDRVTITCQASQDISNHLNWYQQKPGKAPNLLIYDASNLETGVPSRFSGSGSGTDFSFTISSLQPEDIATYYCQQYDNVPPWTFGQGTKVEIK
B14: C1031 (antibody, V domains shown)
VH: QLQLQESGPGLVKPSETLSLTCTVSGGSINTSTYYWGWIRQPPGKGLEWIGNIYYSGITYYNPSLKSRVTISVDTSKNQFSLKLRSVTAADTAVYYCARQHRFGSGSSELLWGQGTLVTVSS
VL: QSALTQPPSASGSPGQSVTISCTGTSSDVGSYNYVSWYQQHPGKAPKLMIYEVTKRPSGVPDRFSGSKSGNTASLTVSGLQADDEADYYCSSYAGSSNLVFGGGTKLTV
notes: IgG; V domains only
B15: C1025 (antibody, V domains shown)
VH: EVQLVESGGGLVQPGRSLRLSCAASGFTFDDYAMHWVRQVPGKGLEWVSGVSWNGDSVGYADSMEGRFTISRDNAKNSLYLQMNSLRTEDTALYYCAKGVDYSSSSNFDFWGQGTLVTVSS
VL: DIQMTQSPSSVSASVGDRVTITCRASQGISSWLAWYQQKPGKAPKLLISLASSLQSGVPSRFSGSGSETDFTLIISSLQPEDFATYYCQQSSSFPLTFGGGTKVEIK
notes: IgG; V domains only
B16: C1032 (antibody, V domains shown)
VH: EVQLVESGGSLVKPGGSLRLSCVASGLTFNHAWMSWVRQAPGKGLEWVGRIKSKIDGGTTDYAAPVKGRFTISRDDSKSTQYLQMNSLKTEDTAVYYCTTDCFWRLGGTTCYEHDAFDVWGQGTMVTVS
VL: DIQMTQSPSSLSASVGDRVTITCRASQAIATFLNWYQQKPGKAPKLLIYAASSLQSGVPSRFSGSGSGTDFTLTISSLQPEDFATYYCQQSYNSLHFGGGTKVEIK
notes: IgG; V domains only
B17: C1038 (antibody, V domains shown)
VH: QVQLVQSGAEVKKPGASVKVSCKASGYTFTSYYMHWVRQAPGQGLEWMGIINPSGGSTRYAQKFQGRVTMTRDTSTSTVYMELSSLRSEDTAVYYCAREGVGGTSYFDYWGQGTLVTVSS
VL: SYELTQPPSVSVAPGKTARITCGGNNIGSKSVHWYQQKPGQAPVLVVYDDSDRPSGIPERFSGSNSGNTATLTISRVEAGDEADYYCQVWDSSSDPYVFGTGTKVTVL
notes: IgG; V domains only
B18: C1039 (antibody, V domains shown)
VH: QVQLVQSGAEVKKPGASVKVSCKASGYTFTSHYMHWVRQAPGQGLEWMGIINPRTRYAQMFQGRVSMNRDTSTSTVYMELSSLTSEDTAVYYCAREGLGATAYFDYWGQGTLVTVSS
VL: B17 VL with R19G, N25S, N26D, T106S
notes: IgG; V domains only
B19: C986 (antibody, V domains shown)
VH: EVQLVQSGAEVKKPGETLKISCKGSGDSFSNYWIGWVRQSPGKGLEWMAIVYPGDSDARYSPSFQGQVTISADKSVTTAYLKWSSLKASDTAIYYCVRGLPVDWYFDLWGRGTLVTVSS
VL: QSVLTQPPSVSGAPEQRVTISCTGSSSNIGAGHDVHWYQQLPGTAPKLLIYNNNNRPSGVPDRFSGSKSGASASLAISGLQAEDEAEYYCQSYDKSLSVLYVLGTGTKVTV
B20: C1034 (antibody, V domains shown)
VH: QLQLQESGPGLVKPSETLSLTCTVSGGSVSSNNHYWGWIRQPPGKGLEWIGSISSSGSTHHNPSLRSRVTISVDTSKNHFSLKLNSVTATDTAVYYCARVDSSGWYTGDVFDVWGQGTMVTVSS
VL: DIQMTQSPSSLSASVGDRVTITCRASQTINNYLNWYQQKPGKPPKLLIYAAFSLHSGVPSRFSGSRSGTDFTLTISSLQPEDFATYYCQHSYSTMCSFGQGTKLEIK
notes: IgG; V domains only
B21: C987 (antibody, V domains shown)
VH: QVQLQESGPGLVKPSETLSLTCNVSGDIINKYYWSWIRQSPGKGLEWIGYIYYSGTTYYNPSLKSRVTMSVGTSKQQFSLRLTSVTAADTAVYYCARMLSTEWSFNWFDPWGPGTLVTVSS
VL: SYELTQPPSVSVSPGQAASITCSGDKLGDKFACWYQQKPGQSPVLVIYQNDKRPTGIPERFSGSNSGNTATLTISGTQAMDEADYFCQAWDSTSASVFGTGTKVTVL
B22: C838 (antibody, V domains shown)
VH: EVQLVESGGGLVQPGKSLRLSCTASGFTFEDYAMHWVRQAPGKGLEWVSGINWKSGSRGYADSAKGRFTISGNTAKNTLHLQMNSLRAEDTAFYYCAKAGVRNIAAAGPDLNFDFWGQGTLVTVSS
VL: EIVLTQSPATLSLSPGERATLSCRASQSVGTYLAWYQHKLGQAPRLLIYDATKRATGIPARFSGSGSGTDFTLTISSLEPEDFAIYYCQQRITFGQGTRLEIK
notes: IgG; V domains only
B23: C984 (antibody, V domains shown)
VH: QVQLVQSGTEVKKPGDSVQVSCKTSGYSFTGYYIHWVRQAPGQGLEWMGRINPNSGGTNYAQKFQGRVIMTRDTSITTAFMELTRLRYDDTAVYFCAREPIEGVIGGMIVNYYYMDVWGRGTTVTVSS
VL: QSALTQPASVSGSPGQSITISCTGTSSDVGGYYYVSWYQQHPGKAPKLMIYDVSSRPSGVSNRFSGSKSGNTASLTISGLQAEDEADYYCSSYTSSNTLVVFGGGTKLTVL
B24: C985 (antibody, V domains shown)
VH: QVQLVQSGAEVKKPGASVKVSCKASGYIFTGYYMHWVRQAPGQGLEWMGRINPNSGGSRYAEKFQGRVTMTRDTSIITAFMELRGLKSDDTAVYYCAREPIEAVPAGIIVNYYYMDVWGNGTTVTVSS
VL: B23 VL with Y33N, S54T, N62D, N71T, Y93F, S96A, N97F

What was measured:
SARS-COV-2 RBD [1] = molecular target: T1, SARS-COV-2 RBD (SARS-COV-2, UniProt P0DTC2 319-539); assay: ELISA, RBD coated
T1 construct: also called WT RBD

SARS-COV-2 RBD [2] = molecular target: T2, SARS-COV-2 RBD (SARS-COV-2, UniProt P0DTC2 319-539); assay: ELISA, RBD coated on plate
T2 construct: also called WT RBD

| Binder | EC50 (SARS-COV-2 RBD [1]) | EC50 (SARS-COV-2 RBD [2]) |
| --- | --- | --- |
| B1 | 3.22 ng/mL |  |
| B2 | 2.57 ng/mL |  |
| B3 | 2.5 ng/mL |  |
| B4 | 3.65 ng/mL |  |
| B5 | 4.55 ng/mL |  |
| B6 | 2.42 ng/mL |  |
| B7 | 3.63 ng/mL |  |
| B8 | 2.05 ng/mL |  |
| B9 | 1.76 ng/mL |  |
| B10 | 2.86 ng/mL |  |
| B11 | 3.58 ng/mL |  |
| B12 | 2.15 ng/mL |  |
| B13 |  | 2.11 ng/mL |
| B14 | 8.71 ng/mL |  |
| B15 | 2.51 ng/mL |  |
| B16 | 2.89 ng/mL |  |
| B17 | 2.46 ng/mL |  |
| B18 | 2.61 ng/mL |  |
| B19 |  | 3.36 ng/mL |
| B20 | 2.77 ng/mL |  |
| B21 |  | 3.11 ng/mL |
| B22 | 3.03 ng/mL |  |
| B23 |  | 2.76 ng/mL |
| B24 |  | 3.67 ng/mL |
